Laboratory results as given in PMC2518520.

Columns and labels:
[1] = target: heterotrimeric Gq (Gαqβ1γ2) (UniProt P21279); test: global least-squares fit of a kinetic model to steady-state GTPase rates; GTP-bound Gq species; purified proteins in unilamellar phospholipid vesicles; constants calculated from fitted rate constants (log average of 41 fits); protein concentrations counted on the bilayer volume, so association constants are about 13,000-fold higher than on the aqueous volume
[2] = target: heterotrimeric Gq (Gαqβ1γ2) (UniProt P21279); test: global least-squares fit of a kinetic model to steady-state GTPase rates; nucleotide-free Gq species; purified proteins in unilamellar phospholipid vesicles; constants calculated from fitted rate constants (log average of 41 fits); protein concentrations counted on the bilayer volume, so association constants are about 13,000-fold higher than on the aqueous volume
[3] = target: complex of agonist-bound m1 muscarinic cholinergic receptor with heterotrimeric Gq (Gαqβ1γ2) (UniProt P11229); test: as above
[4] = target: heterotrimeric Gq (Gαqβ1γ2) (UniProt P21279); test: global least-squares fit of a kinetic model to steady-state GTPase rates; GDP-bound Gq species; purified proteins in unilamellar phospholipid vesicles; constants calculated from fitted rate constants (log average of 41 fits); protein concentrations counted on the bilayer volume, so association constants are about 13,000-fold higher than on the aqueous volume
[5] = target: complex of agonist-bound m1 muscarinic cholinergic receptor with heterotrimeric Gq (Gαqβ1γ2) (UniProt P11229); test: as above
[6] = target: complex of agonist-bound m1 muscarinic cholinergic receptor with heterotrimeric Gq (Gαqβ1γ2) (UniProt P11229); test: global least-squares fit of a kinetic model to steady-state GTPase rates; GTP-bound Gq species; purified proteins in unilamellar phospholipid vesicles; constants calculated from fitted rate constants (log average of 41 fits); protein concentrations counted on the bilayer volume, so association constants are about 13,000-fold higher than on the aqueous volume

m1 muscarinic cholinergic receptor, sequence (P11229 whole entry): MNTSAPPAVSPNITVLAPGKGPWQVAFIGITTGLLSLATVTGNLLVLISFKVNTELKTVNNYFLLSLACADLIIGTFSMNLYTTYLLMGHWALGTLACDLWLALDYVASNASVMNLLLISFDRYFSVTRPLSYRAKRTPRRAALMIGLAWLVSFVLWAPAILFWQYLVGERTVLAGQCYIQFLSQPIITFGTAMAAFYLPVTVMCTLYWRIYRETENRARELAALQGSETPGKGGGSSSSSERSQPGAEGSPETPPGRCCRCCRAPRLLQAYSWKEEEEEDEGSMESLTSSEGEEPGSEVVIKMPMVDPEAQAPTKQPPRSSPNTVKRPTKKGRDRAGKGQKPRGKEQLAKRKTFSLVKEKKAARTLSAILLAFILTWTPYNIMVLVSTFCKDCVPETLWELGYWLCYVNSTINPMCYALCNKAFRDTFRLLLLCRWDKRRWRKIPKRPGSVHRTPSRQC

Substance	fold faster dissociation with GTP bound [1]	Ka [2]	Ka [3]	Ka [4]	Ka [5]	fold faster dissociation than from Gq-GDP without receptor [5]	t1/2 of dissociation [5]	Ka [1]	Ka [6]
m1 muscarinic cholinergic receptor (from UniProt P11229 1-460)	70 fold								
phospholipase C-β1 (from UniProt P10687 1-1216) (enzyme)		370000 M⁻¹	560000 M⁻¹	280000 M⁻¹	2300 M⁻¹	90 fold	0.3 s	9.6e+06 M⁻¹	390000 M⁻¹
